B1: mEC2-C: mouse IgG3 anti-TM4SF5 monoclonal antibody from hybridoma clone 2A10, recognizing hTM4SF5EC2-C cyclic peptide (antibody, V domains shown)
VH: QVQLEESGPGLVAPSQSLSIICTVSGFSLTSYGVTWVRQPPGKGLEWLGVIWSDGSTNYQSALISRLTISRDNSKSQAFLKLNSLQTDDTATYYCARPSNYYYFDYWGQGTTLTVSS
VL: DIVMTQSPSSLAVSAGERVTLSCKSSQSLFDRRTRKTYLAWYQQKPGQSPKLLISWASTRESGVPDRFTGSGSGTDFTLTISSVQAEDLAVYYCKQSYNLFTFGGGTKLEIK

Legend:
TM4SF5 = molecular target: T1, TM4SF5 (Homo sapiens, UniProt O14894); conditions: in vitro and in vivo; cited from earlier work
T1 sequence (O14894 1-197): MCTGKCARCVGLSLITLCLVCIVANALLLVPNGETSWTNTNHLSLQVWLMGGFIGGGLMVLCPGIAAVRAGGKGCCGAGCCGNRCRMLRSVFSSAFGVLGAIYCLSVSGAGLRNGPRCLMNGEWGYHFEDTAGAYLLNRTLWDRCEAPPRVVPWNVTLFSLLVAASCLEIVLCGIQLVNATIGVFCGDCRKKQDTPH

[1] = molecular target: T2, hTM4SF5EC2-C cyclic peptide (Homo sapiens, UniProt O14894, G133C/V156C); experiment: ELISA binding of monoclonal antibody to cyclic peptide
T2 construct: purchased Peptron, Co., Ltd; host or cells: chemical synthesis
T2 sequence (O14894 131-157 G133C/V156C): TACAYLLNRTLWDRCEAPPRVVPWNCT
Protocol: Mice were sacrificed before and 10 days after each administration to obtain serum. To determine the total IgG titer and amount, a 96-well immunoplate (Nalgen Nunc International) was coated with 5 μg/ml hTM4SF5EC2-C cyclic peptide and blocked with 0.05% PBST containing 1% BSA for two hours. After removal of blocking solution, 100 μl of the culture supernatant was added and incubated for 2 hours at room temperature, then washed with PBST and incubated for 2 hours with the detection antibody such as horseradish peroxidase (HRP)-bound an anti-IgG antibody. Colorimetric assays were developed with TMB substrate solutions and absorbance was measured at 450 nm using a Spectra Max 250 microplate reader.

[2] = molecular target: T3, hTM4SF5EC2-C cyclic peptide (Homo sapiens, UniProt O14894, G133C); experiment: SPR (surface plasmon resonance) analysis; type: binding; conditions: 25° C.
T3 construct: purchased Peptron, Co., Ltd; host or cells: chemical synthesis
T3 sequence (O14894 with tags, fused parts or gaps G133C): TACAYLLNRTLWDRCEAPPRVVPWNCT
Protocol: FIG. 6 represents purification and characterization of mouse anti-TM4SF5 monoclonal antibodies recognizing TM4SF5 cyclic peptides. (A) Hydrops abdominis was producted from BALB/c mice by injecting i.p. into the abdominal cavity with hybridoma clone (2A10 clone) derived from FIG. 5. Anti-TM4SF5 monoclonal antibody was purified using protein-A agarose column chromatography and the purified antibody was identified by SDS-PAGE and Coomassie blue staining. (B) The isotype was determined by obtaining titration curves using purified monoclonal antibodies. (C) A binding affinity of monoclonal antibody for cyclic peptide hTM4SF5EC2-C was determined by using ELISA. (D) A binding affinity of monoclonal antibody for cyclic peptide […] was determined by using Reichert Analytical Instruments SPR 7500DC (Reichert). […] (E) HEK 293F-EV (empty vector) and proteins from HEK 293F-TM4SF5 cells were separated by SDS-PAGE and analyzed by Western Blot using anti-TM4SF5 monoclonal antibody (mEC2-C), anti-Myc antibody or anti-β-actin antibody. HEK 293F-EV and proteins of HEK 293F-TM4SF5 cell were immunoprecipitated with mEC2-C and analyzed by Western blot using anti-Myc antibody. […]
The affinities of anti-hTM4SF5 monoclonal antibody (mEC2-C) and humanized anti-TM4SF5 antibody (hEC2-C-2) binding to hTM4SF5EC2-C cyclic peptide were measured at 25° C. using the Reichert SPR system. […]

[3] = molecular target: T4, Myc-tagged recombinant TM4SF5 protein (Homo sapiens, UniProt O14894); experiment: Western blot and immunoprecipitation on TM4SF5-overexpressing HEK 293F cells; type: binding; conditions: HEK 293F cells overexpressing TM4SF5 vs HEK 293F control
T4 construct: expressed in transfected cells
T4 sequence (O14894 1-197): T1 sequence (O14894 1-197)
Protocol: Human TM4SF5 cDNA was amplified by RT-PCR from Huh-7 mRNA using the following primer set: hTM4SF5 5′ primer, 5′-[…]-3′ (SEQ ID NO: 24), hTM4SF5 3′ primer, 5′-[…]-3′ (SEQ ID NO: 25). The cDNA fragment was cloned into the expression vector pcDNA-3.1/Myc-His(−)B (Invitrogen). HEK 293F cells (1×10^6 cells/ml) were transfected with 2.5 μg/ml hTM4SF5/pcDNA and 7.5 μg/ml polyethylenimine (PEI, Polysciences) for the production of stable cell lines expressing hTM4SF5, and the transfected cells were collected using 500 μg/ml G418 (Calbiochem) for 14 days. Expression of Myc-tagged hTM4SF5 was confirmed by Western blot analysis using anti-Myc-tag antibodies.
In order to analyze the specificity of anti-TM4SF5 monoclonal antibody and humanized anti-TM4SF5 antibody, TM4SF5-overexpressed cell lysates were separated on SDS-PAGE, and Western blot and immunoprecipitation assays were performed as described on Kwon S, Kim D, Rhee J W, Park J A, Kim D W, Kim D S, Lee Y, Kwon H J. BMC Biol. 2010; 8:23. In order to identify the expression of E-cadherin and β-catenin in humanized anti-TM4SF5 antibody-treated cells, cell lysates were analyzed with SDS-PAGE and Western blotting method as descried in Kwon S, Choi K C, Kim Y E, Ha Y W, Kim D, Park B K, Wu G, Kim D S, Lee Y, Kwon H J. Cancer Res. 2014; 74(14):3844-3856.

HT-29 cells = type: in vivo, BALB/cAnNCri-nu/nu mice; conditions: 25 mg/kg tail vein twice a week; compared to PBS control
Protocol: Mouse tumor models were established by implanting HT-29 cells into BALB/cAnNCri-nu/nu mice. PBS or anti-TM4SF5 monoclonal antibody was injected into the mice when the tumor size reaches 5 mm in diameter and the tumor growth was monitored for 31 days (n=6 each). (A) Experimental schedule. (B) Macroscopic appearance of colon cancer tissue. (C) Tumor volume (width^2×length/2). (D) Tumor weight. (E) Weight.
Twelve BALB/cAnNCri-nu/nu mice were subcutaneously injected with 5×10^6 HT-29 cells containing 50% matrigel (BD biosciences) on the dorsal right flank. When the tumor diameter reached 5 mm, the mice were randomly sorted into two treatment groups (6 mice/each group) of PBS and anti-TM4SF5 monoclonal antibody (mEC2-C). Antibodies (25 mg/kg) were injected into the tail vein twice a week. During 30 days after injecting the cancer cell, the tumor diameter was measured per 3 or 4 day-interval, and the tumor volume was calculated according to an equation Width^2×length/2. When the tumor size is reached ±600 mm^3, BACB/cAnNCri-NCri-nu/nu mice were sacrificed, and the tumor weight was measured.

| Molecule | HCC growth and metastasis (TM4SF5) | binding to cyclic peptide hTM4SF5EC2-C by ELISA [1] | off rate (kd) [2] | recognition of TM4SF5 protein by Western blot and immunoprecipitation [3] | progression of colon cancer (tumor volume and weight) (HT-29 cells) |
| --- | --- | --- | --- | --- | --- |
| Cc1ccc(S(=O)(=O)Nc2ccc(C(=O)/C=C/c3ccc(O)cc3)cc2)cc1 [TSAHC, 4′-(p-toluenesulfonyl-amido)-4-hydroxychalcone] | inhibited HCC growth and metastasis in vitro and in vivo |  |  |  |  |
| B1 |  | specific binding | 10^−5 /sec | recognize Myc-tagged recombinant TM4SF5 protein | attenuated progression of colon cancer |
